Earlier results on 1 substance are cited in PMC3674867.

By Kd is commonly meant the free concentration of one partner at which half of the binding sites on the other are occupied at equilibrium, for simple one-to-one binding.

The target of this data set is caspase-3 (Homo sapiens) (UniProt P42574). Description: solid phase binding assay.
Chain of UniProt P42574 (P42574 176-277): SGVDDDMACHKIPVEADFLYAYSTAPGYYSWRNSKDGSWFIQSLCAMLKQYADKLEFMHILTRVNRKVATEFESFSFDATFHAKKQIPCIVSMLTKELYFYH

Turning to PAI-1 (from UniProt P05121), the Kd is 3 nM.
